Experimental data reported in PMC3506534, “LL-37 Induces Polymerization and Bundling of Actin and Affects Actin Structure” (PLoS ONE, 2012).

Target: rabbit skeletal muscle α-actin (rabbit, UniProt P68135 1-377)
Test: SPR; BIACORE 3000; actin (10 µg/ml) amine-coupled to a CM5 chip, 1500-1800 RU; running buffer 10 mM HEPES pH 7.4, 150 mM NaCl, 0.005% tween 20; 25°C, 40 µl/min; LL-37 0-500 nM, 1:1 Langmuir model; sLL-37 0-2500 nM, steady state affinity model
Details: both partners purified

B1: scrambled LL-37 (peptide)
peptide: GLKLRFEFSKIKGEFLKTPEVRFRDIKLKDNRISVQR
notes: scrambled order of the residues of LL-37; same net number of positive charges; also called sLL-37; source: bought: Genemed Synthesis Inc; purified by HPLC, purity greater than 90%
B1 showed a Kd of 138 µM.
